From patent publication US20140274782A1, “AFFINITY REAGENTS AND METHODS FOR DETECTION, PURIFICATION, AND PROTEOMIC ANALYSIS OF METHYLATED PROTEINS” (The Board of Trustees of the Leland Stanford Junior …, priority 2013, published 2014)

T1: G9a and GLP (Homo sapiens, UniProt Q96KQ7+Q9H9B1)
T1 sequence (Q96KQ7 2-1210 limits assumed): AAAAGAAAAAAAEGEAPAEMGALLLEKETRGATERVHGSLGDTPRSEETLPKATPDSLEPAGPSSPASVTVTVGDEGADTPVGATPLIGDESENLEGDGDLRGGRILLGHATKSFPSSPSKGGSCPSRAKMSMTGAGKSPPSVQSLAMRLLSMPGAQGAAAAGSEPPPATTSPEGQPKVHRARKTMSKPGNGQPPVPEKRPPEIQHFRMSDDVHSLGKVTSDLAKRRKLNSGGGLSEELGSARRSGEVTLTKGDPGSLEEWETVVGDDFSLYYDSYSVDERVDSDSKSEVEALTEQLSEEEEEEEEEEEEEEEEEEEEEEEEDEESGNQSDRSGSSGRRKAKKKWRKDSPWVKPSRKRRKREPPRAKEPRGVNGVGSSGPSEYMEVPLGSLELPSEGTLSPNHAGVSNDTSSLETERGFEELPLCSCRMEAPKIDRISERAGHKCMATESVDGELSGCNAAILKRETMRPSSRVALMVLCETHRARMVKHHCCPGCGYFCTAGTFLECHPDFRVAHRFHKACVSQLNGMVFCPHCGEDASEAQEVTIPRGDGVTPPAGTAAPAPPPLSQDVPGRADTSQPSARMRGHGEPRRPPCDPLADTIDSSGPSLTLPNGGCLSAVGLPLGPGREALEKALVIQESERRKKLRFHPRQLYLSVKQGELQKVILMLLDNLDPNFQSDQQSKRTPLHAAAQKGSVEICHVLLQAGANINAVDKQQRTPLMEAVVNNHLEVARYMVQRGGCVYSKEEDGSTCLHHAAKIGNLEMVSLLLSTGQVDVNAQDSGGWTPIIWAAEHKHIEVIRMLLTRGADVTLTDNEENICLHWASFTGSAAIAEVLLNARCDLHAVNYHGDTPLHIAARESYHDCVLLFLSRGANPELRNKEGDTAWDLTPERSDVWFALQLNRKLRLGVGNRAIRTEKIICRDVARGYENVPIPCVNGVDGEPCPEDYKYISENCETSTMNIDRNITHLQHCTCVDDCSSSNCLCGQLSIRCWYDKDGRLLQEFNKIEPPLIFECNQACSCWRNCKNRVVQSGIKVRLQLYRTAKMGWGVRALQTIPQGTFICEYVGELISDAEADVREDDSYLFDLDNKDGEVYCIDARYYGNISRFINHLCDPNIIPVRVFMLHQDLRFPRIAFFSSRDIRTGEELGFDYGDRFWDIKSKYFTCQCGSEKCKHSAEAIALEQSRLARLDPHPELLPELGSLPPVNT
T1 sequence (Q9H9B1 2-1298 limits assumed): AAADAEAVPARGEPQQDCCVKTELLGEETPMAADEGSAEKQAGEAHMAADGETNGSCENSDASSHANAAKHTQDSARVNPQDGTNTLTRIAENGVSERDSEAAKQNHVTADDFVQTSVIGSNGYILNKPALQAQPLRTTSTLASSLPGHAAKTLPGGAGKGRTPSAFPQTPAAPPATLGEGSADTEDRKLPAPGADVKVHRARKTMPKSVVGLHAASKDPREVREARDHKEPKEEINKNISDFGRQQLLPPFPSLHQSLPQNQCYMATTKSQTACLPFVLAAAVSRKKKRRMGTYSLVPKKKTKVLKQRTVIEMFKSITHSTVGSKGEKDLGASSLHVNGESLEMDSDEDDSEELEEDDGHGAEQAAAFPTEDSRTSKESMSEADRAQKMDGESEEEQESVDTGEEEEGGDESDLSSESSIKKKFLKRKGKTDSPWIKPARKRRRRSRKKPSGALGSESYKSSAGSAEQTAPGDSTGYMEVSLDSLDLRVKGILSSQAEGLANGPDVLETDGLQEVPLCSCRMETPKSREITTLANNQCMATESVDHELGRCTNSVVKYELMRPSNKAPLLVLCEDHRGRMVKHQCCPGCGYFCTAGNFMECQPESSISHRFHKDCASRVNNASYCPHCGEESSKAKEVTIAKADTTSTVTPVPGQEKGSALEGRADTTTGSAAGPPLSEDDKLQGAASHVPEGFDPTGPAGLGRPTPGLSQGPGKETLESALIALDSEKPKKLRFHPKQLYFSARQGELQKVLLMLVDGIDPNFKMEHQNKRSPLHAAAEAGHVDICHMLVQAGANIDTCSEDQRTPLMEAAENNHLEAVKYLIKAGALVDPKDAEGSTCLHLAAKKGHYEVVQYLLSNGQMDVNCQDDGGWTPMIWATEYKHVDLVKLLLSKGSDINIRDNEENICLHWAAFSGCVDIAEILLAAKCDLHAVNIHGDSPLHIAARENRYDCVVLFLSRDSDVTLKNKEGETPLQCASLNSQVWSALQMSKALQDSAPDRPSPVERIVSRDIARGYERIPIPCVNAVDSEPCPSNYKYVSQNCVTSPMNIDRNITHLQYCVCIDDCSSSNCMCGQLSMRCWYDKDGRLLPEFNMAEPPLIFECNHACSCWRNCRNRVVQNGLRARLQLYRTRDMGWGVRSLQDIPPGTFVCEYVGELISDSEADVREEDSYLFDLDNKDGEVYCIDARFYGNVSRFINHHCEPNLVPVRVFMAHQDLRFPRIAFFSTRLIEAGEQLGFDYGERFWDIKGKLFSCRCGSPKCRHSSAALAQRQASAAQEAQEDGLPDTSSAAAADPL


How the values were obtained:
G9a and GLP = target: T1, G9a and GLP; test: Triple SILAC pull-down after UNC0638 treatment of 293T cells, DMSO/UNC0638 ratio of protein captured by 3×MBT; type: cell-based; parameters: endogenous in cells; host or cells: HEK 293T; settings: all values in log base 2; for Relative to UNC0638 UNC Heavy / Relative to UNC0638 UNC Light: SILAC ratio DMSO relative to UNC0638, pull-down with 3xMBT; for Relative to UNC0638 UNC Heavy: UNC0638 in heavy SILAC media; for Relative to UNC0638 UNC Light: UNC0638 in light SILAC media; for Relative to UNC0638 Average: average of UNC Light and UNC Heavy experiments;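 on all read-outs here: mass spectrometry (Q-Exactive) SILAC quantitation, DMSO/UNC0638 ratio computed after subtracting 3×MBTD355N mutant pull-down background, only proteins with at least twofold 3×MBT over mutant signal considered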
3×MBT domain of L3MBTL1 = test: Triple SILAC pull-down, 3xMBT/3xMBTD355N ratio (cytoplasmic, nuclear and chromatin fractions of 293T cells); type: binding, human; settings: SILAC ratio 3xMBT vs 3xMBTD355N pull-down, 293T cells, all values in log base 2; for 3xMBT/D355N UNC Heavy: experiment with UNC0638 in heavy SILAC media; for 3xMBT/D355N UNC Light: experiment with UNC0638 in light SILAC media;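 on all read-outs here: proteins quantified with MaxQuant, requiring at least two unique peptides and quantification in both label directions, normalized to the mean of proteins from a digested loading control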

Relative to UNC0638 UNC Heavy (G9a and GLP) | Relative to UNC0638 UNC Light (G9a and GLP) | Relative to UNC0638 Average (G9a and GLP) | Molecule | 3xMBT/D355N UNC Heavy (3×MBT domain of L3MBTL1) | 3xMBT/D355N UNC Light (3×MBT domain of L3MBTL1)
−0.19 log base 2 | 0.21 log base 2 | 0.01 log base 2 | IARS (protein, UniProt P41252 1-1262, looked up) Isoleucine--tRNA ligase, …: MLQQVPENINFPAEEEKILEFWTEFNCFQECLKQSKHKPKFTFYDGPPFATGLPHYGHILAGTIKDIVTRYAHQSGFHVDRRFGWDCHGLPVEYEIDKTLGIRGPEDVAKMGITEYNNQCRAIVMRYSAEWKSTVSRLGRWIDFDNDYKTLYPQFMESVWWVFKQLYDKGLVYRGVKVMPFSTACNTPLSNFESHQNYKDVQDPSVFVTFPLEEDETVSLVAWTTTPWTLPSNLAVCVNPEMQYVKIKDVARGRLLILMEARLSALYKLESDYEILERFPGAYLKGKKYRPLFDYFLKCKENGAFTVLVDNYVKEEEGTGVVHQAPYFGAEDYRVCMDFNIIRKDSLPVCPVDASGCFTTEVTDFAGQYVKDADKSIIRTLKEQGRLLVATTFTHSYPFCWRSDTPLIYKAVPSWFVRVENMVDQLLRNNDLCYWVPELVREKRFGNWLKDARDWTISRNRYWGTPIPLWVSDDFEEVVCIGSVAELEELSGAKISDLHRESVDHLTIPSRCGKGSLHRISEVFDCWFESGSMPYAQVHYPFENKREFEDAFPADFIAEGIDQTRGWFYTLLVLATALFGQPPFKNVIVNGLVLASDGQKMSKRKKNYPDPVSIIQKYGADALRLYLINSPVVRAENLRFKEEGVRDVLKDVLLPWYNAYRFLIQNVLRLQKEEEIEFLYNENTVRESPNITDRWILSFMQSLIGFFETEMAAYRLYTVVPRLVKFVDILTNWYVRMNRRRLKGENGMEDCVMALETLFSVLLSLCRLMAPYTPFLTELMYQNLKVLIDPVSVQDKDTLSIHYLMLPRVREELIDKKTESAVSQMQSVIELGRVIRDRKTIPIKYPLKEIVVIHQDPEALKDIKSLEKYIIEELNVRKVTLSTDKNKYGIRLRAEPDHMVLGKRLKGAFKAVMTSIKQLSSEELEQFQKTGTIVVEGHELHDEDIRLMYTFDQATGGTAQFEAHSDAQALVLLDVTPDQSMVDEGMAREVINRIQKLRKKCNLVPTDEITVYYKAKSEGTYLNSVIESHTEFIFTTIKAPLKPYPVSPSDKVLIQEKTQLKGSELEITLTRGSSLPGPACAYVNLNICANGSEQGGVLLLENPKGDNRLDLLKLKSVVTSIFGVKNTELAVFHDETEIQNQTDLLSLSGKTLCVTAGSAPSLINSSSTLLCQYINLQLLNAKPQECLMGTVGTLLLENPLGQNGLTHQGLLYEAAKVFGLRSRKLKLFLNETQTQEITEDIPVKTLNMKTVYVSVLPTTADF | 2.10 log base 2 | 2.25 log base 2
0.03 log base 2 | −0.03 log base 2 | 0.00 log base 2 | RBM39 (protein, UniProt Q14498 2-530, looked up) RNA-binding protein 39: ADDIDIEAMLEAPYKKDENKLSSANGHEERSKKRKKSKSRSRSHERKRSKSKERKRSRDRERKKSKSRERKRSRSKERRRSRSRSRDRRFRGRYRSPYSGPKFNSAIRGKIGLPHSIKLSRRRSRSKSPFRKDKSPVREPIDNLTPEERDARTVFCMQLAARIRPRDLEEFFSTVGKVRDVRMISDRNSRRSKGIAYVEFVDVSSVPLAIGLTGQRVLGVPIIVQASQAEKNRAAAMANNLQKGSAGPMRLYVGSLHFNITEDMLRGIFEPFGRIESIQLMMDSETGRSKGYGFITFSDSECAKKALEQLNGFELAGRPMKVGHVTERTDASSASSFLDSDELERTGIDLGTTGRLQLMARLAEGTGLQIPPAAQQALQMSGSLAFGAVAEFSFVIDLQTRLSQQTEASALAAAASVQPLATQCFQLSNMFNPQTEEEVGWDTEIKDDVIEECNKHGGVIHIYVDKNSAQGNVYVKCPSIAAAIAAVNALHGRWFAGKMITAAYVPLPTYHNLFPDSMTATQLLVPSRR | 2.04 log base 2 | 0.93 log base 2
0.19 log base 2 | −0.24 log base 2 | −0.02 log base 2 | DHX36 (protein, UniProt Q9H2U1 1-1008, looked up) ATP-dependent DNA/RNA …: MSYDYHQNWGRDGGPRSSGGGYGGGPAGGHGGNRGSGGGGGGGGGGRGGRGRHPGHLKGREIGMWYAKKQGQKNKEAERQERAVVHMDERREEQIVQLLNSVQAKNDKESEAQISWFAPEDHGYGTEVSTKNTPCSENKLDIQEKKLINQEKKMFRIRNRSYIDRDSEYLLQENEPDGTLDQKLLEDLQKKKNDLRYIEMQHFREKLPSYGMQKELVNLIDNHQVTVISGETGCGKTTQVTQFILDNYIERGKGSACRIVCTQPRRISAISVAERVAAERAESCGSGNSTGYQIRLQSRLPRKQGSILYCTTGIILQWLQSDPYLSSVSHIVLDEIHERNLQSDVLMTVVKDLLNFRSDLKVILMSATLNAEKFSEYFGNCPMIHIPGFTFPVVEYLLEDVIEKIRYVPEQKEHRSQFKRGFMQGHVNRQEKEEKEAIYKERWPDYVRELRRRYSASTVDVIEMMEDDKVDLNLIVALIRYIVLEEEDGAILVFLPGWDNISTLHDLLMSQVMFKSDKFLIIPLHSLMPTVNQTQVFKRTPPGVRKIVIATNIAETSITIDDVVYVIDGGKIKETHFDTQNNISTMSAEWVSKANAKQRKGRAGRVQPGHCYHLYNGLRASLLDDYQLPEILRTPLEELCLQIKILRLGGIAYFLSRLMDPPSNEAVLLSIRHLMELNALDKQEELTPLGVHLARLPVEPHIGKMILFGALFCCLDPVLTIAASLSFKDPFVIPLGKEKIADARRKELAKDTRSDHLTVVNAFEGWEEARRRGFRYEKDYCWEYFLSSNTLQMLHNMKGQFAEHLLGAGFVSSRNPKDPESNINSDNEKIIKAVICAGLYPKVAKIRLNLGKKRKMVKVYTKTDGLVAVHPKSVNVEQTDFHYNWLIYHLKMRTSSIYLYDCTEVSPYCLLFFGGDISIQKDNDQETIAVDEWIVFQSPARIAHLVKELRKELDILLQEKIESPHPVDWNDTKSRDCAVLSAIIDLIKTQEKATPRNFPPRFQDGYYS | 1.95 log base 2 | 2.83 log base 2
